Experiment [1] has as its target Full-length MctBsm (MctB of M. smegmatis) (M. smegmatis).
The target is the same in experiment [2]. Description: SDS-PAGE under mild conditions with Western blot; 0.1% SDS in loading buffer, no reducing agent, not boiled, run in an ice bath; protein purified in OPOE; gel slices eluted with OPOE and run again.

Bounds are passed on as bounds.

Regarding “Full-length MctBsm (MctB of M. smegmatis) (natural protein)”, in experiment [1], the channel insertions in lipid bilayer experiments (DphPC, 1 M KCl, 10 mM Hepes pH 7.0, 100 mV), purified MctBsm before fractionation amounted to 20 pS. Besides, the stoichiometry N (as a rule, a count of units in the complex or per binding partner) in experiment [2] was above 2.

The values are drawn from publication PMC12859517.
